Test results taken from article PMC12520249 (Nature, 2025).

Biological target: the molecule itself
Assay: cryo-EM structure

| Protein | binding result |
| --- | --- |
| hGluD2(ΔATD), human GluD2 with the amino-terminal domain deleted (receptor, UniProt O43424-1 24-1007, looked up) DSIDKKLENNMRGVVLRVVTVLEEPFVMVSENVLGKPKKYQGFSIDVLDALSNYLGFNYEIYVAPDHKYGSPQEDGTWNGLVGELVFKRADIGISALTITPDRENVVDFTTRYMDYSVGVLLRRAEKTVDMFACLAPFDLSLWACIAGTVLLVGLLVYLLNWLNPPRLQMGSMTSTTLYNSMWFVYGSFVQQGGEVPYTTLATRMMMGAWWLFALIVISSYTANLAAFLTITRIESSIQSLQDLSKQTEIPYGTVLDSAVYEHVRMKGLNPFERDSMYSQMWRMINRSNGSENNVLESQAGIQKVKYGNYAFVWDAAVLEYVAINDPDCSFYTIGNTVADRGYGIALQHGSPYRDVFSQRILELQQNGDMDILKHKWWPKNGQCDLYSSVDTKQKGGALDIKSFAGVFCILAAGIVLSCFIAMLETWWNKRKGSRVPSKEDDKEIDLEHLHRRVNSLCTDDDSPHKQFSTSSIDLTPLDIDTLPTRQALEQISDFRNTHITTTTFIPEQIQTLSRTLSAKAASGFTFGNVPEHRTGPFRHRAPNGGFFRSPIKTMSSIPYQPTPTLGLNLGNDPDRGTSI | binds |
| hGluD2(R710W), human GluD2 with the cerebellar ataxia mutation R710W (receptor, UniProt O43424-1 24-1007, looked up) DSIIHIGAIFDESAKKDDEVFRTAVGDLNQNEEILQTEKITFSVTFVDGNNPFQAVQEACELMNQGILALVSSIGCTSAGSLQSLADAMHIPHLFIQRSTAGTPRSGCGLTRSNRNDDYTLSVRPPVYLHDVILRVVTEYAWQKFIIFYDSEYDIRGIQEFLDKVSQQGMDVALQKVENNINKMITTLFDTMRIEELNRYRDTLRRAILVMNPATAKSFITEVVETNLVAFDCHWIIINEEINDVDVQELVRRSIGRLTIIRQTFPVPQNISQRCFRGNHRISSTLCDPKDPFAQNMEISNLYIYDTVLLLANAFHKKLEDRKWHSMASLSCIRKNSKPWQGGRSMLETIKKGGVSGLTGELEFGENGGNPNVHFEILGTNYGEELGRGVRKLGCWNPVTGLNGSLTDKKLENNMRGVVLRVVTVLEEPFVMVSENVLGKPKKYQGFSIDVLDALSNYLGFNYEIYVAPDHKYGSPQEDGTWNGLVGELVFKRADIGISALTITPDRENVVDFTTRYMDYSVGVLLRRAEKTVDMFACLAPFDLSLWACIAGTVLLVGLLVYLLNWLNPPRLQMGSMTSTTLYNSMWFVYGSFVQQGGEVPYTTLATRMMMGAWWLFALIVISSYTANLAAFLTITRIESSIQSLQDLSKQTEIPYGTVLDSAVYEHVRMKGLNPFERDSMYSQMWWMINRSNGSENNVLESQAGIQKVKYGNYAFVWDAAVLEYVAINDPDCSFYTIGNTVADRGYGIALQHGSPYRDVFSQRILELQQNGDMDILKHKWWPKNGQCDLYSSVDTKQKGGALDIKSFAGVFCILAAGIVLSCFIAMLETWWNKRKGSRVPSKEDDKEIDLEHLHRRVNSLCTDDDSPHKQFSTSSIDLTPLDIDTLPTRQALEQISDFRNTHITTTTFIPEQIQTLSRTLSAKAASGFTFGNVPEHRTGPFRHRAPNGGFFRSPIKTMSSIPYQPTPTLGLNLGNDPDRGTSI | binds |
